Measurements reported in the supplement of paper PMC10065799, “High-throughput profiling of sequence recognition by tyrosine kinases and SH2 domains using bacterial peptide display” (eLife, 2023).

What was measured:
[1] = test system: c-Src; assay: phosphorylation enrichment, bacterial display (enrichment ratio); higher = better substrate or ligand; peptides without Tyr show the background
[2] = molecular target: Fes (UniProt P07332); assay: as above
[3] = molecular target: EPHB2 (UniProt P29323); assay: as above
[4] = molecular target: FGFR3 (UniProt P22607); assay: as above
[5] = test system: c-Abl (mouse); assay: as above
[6] = molecular target: EPHB1 (UniProt P54762); assay: as above
[7] = molecular target: Jak2 (UniProt O60674); assay: as above
[8] = molecular target: FGFR1 (UniProt P11362); assay: as above
[9] = molecular target: MERTK (UniProt Q12866); assay: as above
[10] = molecular target: Fyn (UniProt P06241); assay: as above
[11] = test system: AncSZ; assay: as above
[12] = molecular target: Hck (UniProt P08631); assay: as above
[13] = test system: Fer (mouse); assay: as above
[14] = molecular target: SHP2-C SH2; assay: SH2 binding enrichment of the phosphorylated peptide, bacterial display (enrichment ratio); higher = better substrate or ligand; peptides without Tyr show the background
[15] = molecular target: c-Src SH2; assay: as above
[16] = molecular target: Grb2 SH2 (UniProt P62993); assay: as above
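Throughout, for SH2 binding enrichment of the phosphorylated peptide, bacterial display: peptide library displayed on the E. coli surface as eCPX fusions, selected cells deep-sequenced, score is each peptide's frequency after selection divided by its frequency in the input.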
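Throughout, for phosphorylation enrichment, bacterial display: 11-residue human phosphosite peptides and single-mutation variants displayed on the E. coli surface, counted by deep sequencing, each peptide's frequency after selection divided by its frequency in the unselected input library; frequency after pTyr selection over input frequency; kinase dosed for 20-30% of maximal phosphorylation in three min.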

Hck, sequence (P08631 whole entry, looked up): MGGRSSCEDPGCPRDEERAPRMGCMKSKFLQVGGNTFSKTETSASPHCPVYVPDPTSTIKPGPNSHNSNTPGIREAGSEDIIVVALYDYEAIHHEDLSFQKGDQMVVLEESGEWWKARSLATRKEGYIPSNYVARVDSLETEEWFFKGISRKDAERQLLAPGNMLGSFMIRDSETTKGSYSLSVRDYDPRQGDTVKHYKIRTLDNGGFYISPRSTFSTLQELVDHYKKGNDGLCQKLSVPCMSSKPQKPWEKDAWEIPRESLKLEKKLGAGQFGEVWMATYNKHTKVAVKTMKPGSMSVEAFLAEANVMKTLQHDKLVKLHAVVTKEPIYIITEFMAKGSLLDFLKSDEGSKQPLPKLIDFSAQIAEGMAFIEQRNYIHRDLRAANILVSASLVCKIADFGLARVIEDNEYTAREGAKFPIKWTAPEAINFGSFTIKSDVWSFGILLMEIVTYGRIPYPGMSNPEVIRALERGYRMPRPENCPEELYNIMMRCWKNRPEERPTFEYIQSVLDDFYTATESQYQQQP
EPHB2, sequence (P29323 whole entry, looked up): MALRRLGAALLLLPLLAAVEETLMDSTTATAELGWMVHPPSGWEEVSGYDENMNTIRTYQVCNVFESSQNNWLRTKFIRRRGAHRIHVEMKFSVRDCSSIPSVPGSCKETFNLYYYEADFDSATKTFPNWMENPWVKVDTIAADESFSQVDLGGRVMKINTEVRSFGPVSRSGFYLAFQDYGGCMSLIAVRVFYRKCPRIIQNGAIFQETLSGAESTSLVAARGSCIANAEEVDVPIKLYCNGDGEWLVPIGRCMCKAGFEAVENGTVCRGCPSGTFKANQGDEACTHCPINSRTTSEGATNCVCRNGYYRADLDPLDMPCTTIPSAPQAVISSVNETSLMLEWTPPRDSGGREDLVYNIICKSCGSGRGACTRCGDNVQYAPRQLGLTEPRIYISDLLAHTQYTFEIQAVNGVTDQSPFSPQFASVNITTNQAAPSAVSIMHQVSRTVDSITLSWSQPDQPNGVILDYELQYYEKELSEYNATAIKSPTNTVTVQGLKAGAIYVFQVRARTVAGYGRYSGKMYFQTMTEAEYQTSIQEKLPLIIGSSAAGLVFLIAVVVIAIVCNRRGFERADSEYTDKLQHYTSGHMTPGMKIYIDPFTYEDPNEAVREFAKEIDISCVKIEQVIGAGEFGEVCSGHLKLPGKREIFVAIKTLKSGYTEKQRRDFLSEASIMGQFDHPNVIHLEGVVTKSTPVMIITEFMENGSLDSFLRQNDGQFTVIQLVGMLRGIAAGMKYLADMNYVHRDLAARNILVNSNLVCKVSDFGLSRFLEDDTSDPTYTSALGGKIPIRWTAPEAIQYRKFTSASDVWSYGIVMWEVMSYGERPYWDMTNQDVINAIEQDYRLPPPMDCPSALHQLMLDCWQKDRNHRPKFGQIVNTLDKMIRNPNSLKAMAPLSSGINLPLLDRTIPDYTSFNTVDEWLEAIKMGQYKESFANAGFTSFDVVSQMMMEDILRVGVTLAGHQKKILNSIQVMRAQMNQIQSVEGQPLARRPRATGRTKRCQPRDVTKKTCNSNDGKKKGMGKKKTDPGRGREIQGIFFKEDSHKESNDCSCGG
FGFR3, sequence (P22607 whole entry, looked up): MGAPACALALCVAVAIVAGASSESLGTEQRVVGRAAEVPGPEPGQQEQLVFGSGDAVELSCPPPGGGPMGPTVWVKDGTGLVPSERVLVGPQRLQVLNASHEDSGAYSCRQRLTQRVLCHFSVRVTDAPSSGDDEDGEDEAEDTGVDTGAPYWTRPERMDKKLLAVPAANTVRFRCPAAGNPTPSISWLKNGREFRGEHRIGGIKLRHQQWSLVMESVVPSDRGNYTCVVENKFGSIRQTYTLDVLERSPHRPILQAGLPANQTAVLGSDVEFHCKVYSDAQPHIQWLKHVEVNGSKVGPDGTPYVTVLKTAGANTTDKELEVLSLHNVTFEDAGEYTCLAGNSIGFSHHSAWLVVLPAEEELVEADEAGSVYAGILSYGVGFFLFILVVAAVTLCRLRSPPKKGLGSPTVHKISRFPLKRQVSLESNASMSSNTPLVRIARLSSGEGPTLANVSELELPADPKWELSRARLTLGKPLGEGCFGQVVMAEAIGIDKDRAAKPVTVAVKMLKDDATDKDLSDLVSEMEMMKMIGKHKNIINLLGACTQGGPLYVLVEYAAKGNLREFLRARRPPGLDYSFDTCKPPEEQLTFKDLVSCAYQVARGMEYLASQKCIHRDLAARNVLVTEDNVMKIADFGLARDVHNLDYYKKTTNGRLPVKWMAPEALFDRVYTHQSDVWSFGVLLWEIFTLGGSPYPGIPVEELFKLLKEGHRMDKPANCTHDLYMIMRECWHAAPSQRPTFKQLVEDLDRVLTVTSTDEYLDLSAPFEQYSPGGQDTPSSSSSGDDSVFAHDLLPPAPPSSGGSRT
MERTK, sequence (Q12866 whole entry, looked up): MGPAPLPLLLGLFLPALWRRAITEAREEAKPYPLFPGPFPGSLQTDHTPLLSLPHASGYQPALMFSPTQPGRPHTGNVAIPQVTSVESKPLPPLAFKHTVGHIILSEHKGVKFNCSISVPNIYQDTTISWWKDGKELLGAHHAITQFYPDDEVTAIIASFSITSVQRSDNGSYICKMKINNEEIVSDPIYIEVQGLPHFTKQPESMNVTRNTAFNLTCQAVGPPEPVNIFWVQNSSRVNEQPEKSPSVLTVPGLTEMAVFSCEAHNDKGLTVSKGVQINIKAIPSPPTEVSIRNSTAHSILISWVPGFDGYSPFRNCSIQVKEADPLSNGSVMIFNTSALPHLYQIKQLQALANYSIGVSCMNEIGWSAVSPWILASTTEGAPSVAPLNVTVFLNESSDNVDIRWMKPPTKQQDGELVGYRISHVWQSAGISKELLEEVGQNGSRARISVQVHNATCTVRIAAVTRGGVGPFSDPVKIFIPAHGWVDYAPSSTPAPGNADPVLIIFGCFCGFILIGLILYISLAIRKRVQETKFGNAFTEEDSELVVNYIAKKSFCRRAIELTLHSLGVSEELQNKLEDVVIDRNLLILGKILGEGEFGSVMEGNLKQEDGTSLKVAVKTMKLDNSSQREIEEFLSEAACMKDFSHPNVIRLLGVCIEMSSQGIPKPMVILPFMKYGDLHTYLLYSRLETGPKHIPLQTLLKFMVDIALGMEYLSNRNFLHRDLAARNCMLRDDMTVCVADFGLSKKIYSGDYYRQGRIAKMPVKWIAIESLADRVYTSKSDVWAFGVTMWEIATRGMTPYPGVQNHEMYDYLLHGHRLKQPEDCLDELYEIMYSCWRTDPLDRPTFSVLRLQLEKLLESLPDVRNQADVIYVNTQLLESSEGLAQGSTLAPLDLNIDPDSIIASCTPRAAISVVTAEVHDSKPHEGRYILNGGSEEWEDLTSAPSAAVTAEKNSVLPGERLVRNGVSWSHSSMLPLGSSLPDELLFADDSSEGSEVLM
Fes, sequence (P07332 whole entry, looked up): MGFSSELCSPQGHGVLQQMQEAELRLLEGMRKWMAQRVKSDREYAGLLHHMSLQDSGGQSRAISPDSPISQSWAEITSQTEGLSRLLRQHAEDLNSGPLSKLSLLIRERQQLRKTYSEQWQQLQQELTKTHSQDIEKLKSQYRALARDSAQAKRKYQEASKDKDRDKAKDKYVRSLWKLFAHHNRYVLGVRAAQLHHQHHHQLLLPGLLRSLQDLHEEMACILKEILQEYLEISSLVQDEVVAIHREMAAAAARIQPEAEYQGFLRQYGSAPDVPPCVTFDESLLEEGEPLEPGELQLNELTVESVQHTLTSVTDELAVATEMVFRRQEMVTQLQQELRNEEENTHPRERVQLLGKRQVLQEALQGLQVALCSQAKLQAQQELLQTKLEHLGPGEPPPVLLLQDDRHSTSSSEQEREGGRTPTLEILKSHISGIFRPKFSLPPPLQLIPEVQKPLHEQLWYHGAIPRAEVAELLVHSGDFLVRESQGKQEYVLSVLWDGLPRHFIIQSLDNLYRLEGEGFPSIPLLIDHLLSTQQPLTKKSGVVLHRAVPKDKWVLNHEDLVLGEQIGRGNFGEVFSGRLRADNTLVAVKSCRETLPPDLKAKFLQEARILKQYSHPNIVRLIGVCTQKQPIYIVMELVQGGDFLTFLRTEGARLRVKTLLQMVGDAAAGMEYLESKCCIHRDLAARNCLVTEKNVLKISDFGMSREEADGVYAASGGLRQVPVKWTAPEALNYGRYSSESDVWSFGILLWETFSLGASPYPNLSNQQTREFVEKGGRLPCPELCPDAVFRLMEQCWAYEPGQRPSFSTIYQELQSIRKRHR
Fyn, sequence (P06241 whole entry, looked up): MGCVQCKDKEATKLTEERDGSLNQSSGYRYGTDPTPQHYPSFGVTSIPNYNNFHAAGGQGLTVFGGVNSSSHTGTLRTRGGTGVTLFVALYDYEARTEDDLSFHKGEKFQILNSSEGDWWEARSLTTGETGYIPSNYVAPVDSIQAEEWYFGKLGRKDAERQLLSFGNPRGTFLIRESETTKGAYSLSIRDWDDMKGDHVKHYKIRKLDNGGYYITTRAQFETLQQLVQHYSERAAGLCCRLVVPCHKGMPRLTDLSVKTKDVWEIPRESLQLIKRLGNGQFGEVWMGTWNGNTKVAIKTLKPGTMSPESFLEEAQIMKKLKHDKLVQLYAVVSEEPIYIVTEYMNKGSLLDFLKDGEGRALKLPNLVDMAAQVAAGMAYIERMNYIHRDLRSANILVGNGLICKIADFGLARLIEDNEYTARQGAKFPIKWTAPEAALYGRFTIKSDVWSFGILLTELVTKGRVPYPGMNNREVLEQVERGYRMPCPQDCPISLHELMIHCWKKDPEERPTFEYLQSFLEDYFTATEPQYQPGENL

Sequence	SH2 binding enrichment [14]	SH2 binding enrichment [15]	SH2 binding enrichment [16]	phosphorylation enrichment [1]	phosphorylation enrichment [2]	phosphorylation enrichment [3]	phosphorylation enrichment [4]	phosphorylation enrichment [5]	phosphorylation enrichment [6]	phosphorylation enrichment [7]	phosphorylation enrichment [8]	phosphorylation enrichment [9]	phosphorylation enrichment [10]	phosphorylation enrichment [11]	phosphorylation enrichment [12]	phosphorylation enrichment [13]
MGRVKYGAYIN [GLB1_Y485_N484K]	1.51	1.38	2.27	0.378	0.569	0.408	0.47	0.461	0.282	0.447	0.374	0.358	0.472	0.506	0.401	0.416
TAVNGYAFGGG [ECHS1_Y137_A132T]	0.093	0.399	0.683	0.561	0.723	0.531	0.922	0.592	0.417	0.737	0.404	0.462	0.593	0.558	0.419	0.62
ISKILYHIIKG [CDH17_Y489_S484I]	2	3.02	1.75	0.551	0.823	0.535	0.601	0.601	0.679	0.783	0.651	1.11	0.449	0.779	0.508	0.379
LMIEEYLTKEL [BAG3_Y457]	1.16	0.514	0.981	1.18	2.04	0.993	1.14	1.42	0.911	2.83	0.759	0.872	0.723	2.23	0.685	0.629
RPAFTYATLIR [FOXP3_Y342_P339A]	7.65	1.42	1.66	6.49	1.59	1.17	0.868	1.4	2.25	1.55	0.817	1.64	2.01	1.19	3.08	0.718
GPIFRYDLGGA [CYP11B1_Y81]	0.859	0.518	0.97	0.394	0.822	0.431	0.433	0.497	0.478	0.568	0.432	0.345	0.45	0.777	0.357	0.466
VWALTYCDLHK [KCNH2_Y827_R823W]	0.791	0.655	0.884	1.2	1.32	0.76	0.967	0.809	1.75	1.49	0.823	0.507	0.605	1.28	0.632	0.594
DVELLYPLKEK [EPHX1_Y283_V285L]	0.787	0.448	0.893	0.439	1	0.438	0.751	0.695	0.395	0.866	0.452	0.426	0.484	1.08	0.495	0.422
RHLREYPDLLN [DES_Y388_Q389P]	0.878	1.09	1.25	0.453	0.822	0.463	0.71	0.404	0.375	0.73	0.584	0.569	0.389	0.695	0.53	0.352
CQNRFYDAKVR [FKBP6_Y188_R183C]	0.914	0.684	0.941	0.416	0.897	0.485	0.669	0.684	0.445	0.869	0.495	0.477	0.373	0.794	0.475	0.426
VAVTKYCKEEF [ATP7B_Y1078_L1083F]	0.598	0.501	0.862	0.462	1.05	0.568	0.624	0.707	0.605	0.959	0.563	0.357	0.459	0.887	0.458	0.487
GVTLLYYGRYN [ADGRD1_Y85]	1.24	1.05	1.28	3.17	1.31	0.92	0.826	0.852	0.808	1.85	0.611	0.728	2.77	1.5	2.13	0.577
MFFSKYDRDND [FGB_Y408_T407K]	0.801	0.447	1.07	0.426	1.01	0.488	0.66	0.717	0.493	0.845	0.47	0.486	0.501	0.817	0.589	0.51
AVEDQYFRVDC [FHL1_Y207_C209R_YF]	0.892	0.591	0.934	0.519	1.38	0.568	3.33	0.838	0.655	1.6	4.27	0.499	0.552	2.04	0.542	0.626

Continued, in another order:

SH2 binding enrichment [14]	SH2 binding enrichment [15]	SH2 binding enrichment [16]	Sequence	phosphorylation enrichment [1]	phosphorylation enrichment [2]	phosphorylation enrichment [3]	phosphorylation enrichment [4]	phosphorylation enrichment [5]	phosphorylation enrichment [6]	phosphorylation enrichment [7]	phosphorylation enrichment [8]	phosphorylation enrichment [9]	phosphorylation enrichment [10]	phosphorylation enrichment [11]	phosphorylation enrichment [12]	phosphorylation enrichment [13]
0.886	2.59	0.885	PVQAAYEKVVA [HBB_Y131_Q132E]	0.415	1.02	0.345	0.699	0.551	0.744	0.568	0.786	0.507	0.88	0.855	0.591	0.958
0.856	0.465	0.788	EREFKYGAHNH [OAT_Y50_Y55H_YF]	0.319	0.545	0.228	0.368	0.44	0.474	0.376	0.336	0.439	0.307	0.524	0.29	0.441
0.772	0.307	0.699	QGIIIYRAAFF [SLC25A4_Y187_YF]	0.542	1.69	0.338	0.634	1.04	0.605	1.17	0.327	0.61	0.342	1.21	0.422	0.581
0.784	0.427	0.839	GVLDIYGFDIL [MYO1A_Y382_E385D]	2.69	1.07	0.566	0.621	0.69	0.67	0.955	0.448	0.465	3.78	0.978	2.12	0.524
0.768	0.949	1.36	GCKNRYDKDKP [THAP1_Y14]	0.591	0.928	0.474	0.804	0.752	0.506	0.691	0.557	0.482	0.535	0.655	0.596	0.745
0.884	0.554	0.883	RLLVDYPWTQR [HBB_Y36_V35D]	0.351	0.759	0.542	0.75	0.465	0.591	0.516	0.544	0.411	0.616	0.978	0.476	0.45
0.729	0.499	0.801	SEHLIYLEFKS [RASGRP1_Y215_T214I]	5.64	1.46	1.04	1.77	6.39	1.58	1.2	1.61	0.875	6.74	1.44	5.08	0.69
1	0.526	0.915	RRNNSYTCYTA [SLC20A2_Y386]	0.865	1.2	0.678	0.536	1.02	1.81	1.24	0.645	0.665	0.73	1.04	0.523	0.615
0.605	0.895	0.949	CTTIHDNFMCN [TP53_Y234_Y234D_YF]	0.436	0.898	0.512	0.592	0.631	0.544	0.849	0.516	0.37	0.441	0.841	0.54	0.465
0.843	0.583	0.977	SSGSRYQPLAS [NCAPD2_Y1325_T1321S]	0.453	0.558	0.431	0.433	0.488	0.366	0.531	0.468	0.43	0.384	0.529	0.442	0.392
1.91	3.92	0.879	WFPYTYVEEDE [VAV3_Y842_S840Y]	1.3	1.3	0.773	1.72	0.746	1.16	1.08	1.56	0.625	0.843	1.47	0.616	0.899
0.531	0.51	0.822	TRRSSYEDSSL [HNF4A_Y144]	0.447	0.707	0.529	0.57	0.402	0.379	0.465	0.42	0.5	0.53	1.2	0.457	0.447
0.699	0.644	1.57	QQLVAYFSKHA [SRC_Y232_YF]	0.744	1.15	0.547	0.813	0.806	0.664	0.936	0.621	0.573	0.53	0.972	0.652	0.48
0.659	0.412	0.713	ANSSFYSTRSA [NUMA1_Y1836]	0.468	0.568	0.365	0.41	0.644	0.405	0.575	0.425	0.523	0.513	0.56	1.07	0.356
0.595	0.413	1.02	TTHRGYDSDNP [MMUT_Y146_A141T]	0.389	0.859	0.532	0.823	0.642	0.685	0.699	0.542	0.53	0.685	0.744	0.665	0.423
0.627	0.606	0.709	SVVVPYEPPVV [TP53_Y220_E224V]	0.437	0.921	0.574	0.61	0.659	0.518	0.731	0.446	0.397	0.453	1	0.437	0.457
0.482	3.79	0.569	TVEDHYYEGGI [TKT_Y563]	0.588	1.23	0.583	1.9	0.745	0.789	1.06	1.72	0.574	0.589	1.27	0.565	0.636
1.2	0.92	1.03	KHVMPYAANKN [GRIN2A_Y1431_E1426K]	0.36	0.511	0.43	0.387	0.484	0.301	0.443	0.401	0.383	0.345	0.547	0.332	0.374
0.615	0.516	0.811	SARFRYLVAEK [LDHB_Y173_M175V]	0.449	0.635	0.486	0.425	0.569	0.351	0.607	0.424	0.327	0.415	0.698	0.458	0.447
